Assay [1] addresses T1, human CD33 (human, UniProt P20138 18-364). Put plainly: flow cytometry, CHO cells expressing recombinant human CD33, 10 ug/ml antibody, PE secondary.
Assay [2] addresses T1, human CD33. Put plainly: flow cytometry, human primary macrophages, 10 ug/ml antibody. Background: Flow cytometry measures light scatter and fluorescence of single cells or particles in a stream.
The target of assay [3] is T1, human CD33. Put plainly: cell-based or functional assay.
The target of assay [4] is T1, human CD33. The assay is described as follows: flow cytometry, human primary dendritic cells, 10 ug/ml antibody.
The next assay deals with CD33-Fc (human) (UniProt P20138). The assay is described as follows: red blood cell solid adhesion assay, plate-bound CD33-Fc, antibody at 1.0 ug/ml; competitor: ligands on red blood cells; % of RBC binding without antibody.
Assay [5] concerns the target T1, human CD33. The assay is described as follows: flow cytometry, human primary monocytes, 10 ug/ml antibody.
A further assay concerns the target Y49A. Put plainly: alanine-scanning library in HEK-293T cells, immunofluorescence by flow cytometry; mean of duplicates, mock-subtracted, normalised to wild-type CD33; range in parentheses.
Another assay addresses F44A. The assay is described as above.
Another assay addresses P46A. The description is as above.
The target of the next assay is K52A. Described as above.
Another assay has as its target F21A. The assay is described as above.
The target in the next assay is D18A. The assay is described as above.
For a further assay, the target named is P19A. The assay is described as above.
A further assay concerns the target N53A. The assay is described as above.
The target of a further assay is Y50A. The description is as above.
A further assay concerns the target N20A. The assay is described as above.
The target of assay [6] is histidine-tagged human CD33 (Sino Biological) (human, UniProt P20138 18-364). Put plainly: SPR (BiaCore T200, 25 C), antibody captured on anti-mouse IgG chip, 20 nM His-tagged CD33 in solution, single-concentration 1:1 fit; apparent KD. A general note: In SPR one partner is held on a chip, and binding of the other changes the refractive index at the surface.
Assay [7] has as its target T1, human CD33. The assay is described as follows: flow cytometry binding curve on human primary dendritic cells, about 0.003-3 nM antibody.
In assay [8] the target is T1, human CD33. The assay is described as follows: flow cytometry binding curve on human primary dendritic cells, about 0.003-3 nM antibody (FIG. 5H).

“And” between values parts separate entries of the source, which are not always exact repeats. Equal values may be shown once. Bounds are passed on as bounds.

T1 sequence (P20138 18-364 limits assumed): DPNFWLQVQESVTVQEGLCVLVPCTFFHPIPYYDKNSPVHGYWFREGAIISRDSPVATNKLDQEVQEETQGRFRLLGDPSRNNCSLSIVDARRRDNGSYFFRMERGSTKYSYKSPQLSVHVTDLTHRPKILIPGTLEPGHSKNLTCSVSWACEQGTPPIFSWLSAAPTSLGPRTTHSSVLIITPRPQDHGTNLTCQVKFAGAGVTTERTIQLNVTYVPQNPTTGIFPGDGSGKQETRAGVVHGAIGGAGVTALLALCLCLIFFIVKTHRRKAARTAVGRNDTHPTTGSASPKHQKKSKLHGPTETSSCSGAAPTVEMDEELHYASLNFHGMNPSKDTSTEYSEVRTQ
histidine-tagged human CD33 (Sino Biological), sequence (P20138 18-364): as the sequence (P20138 18-364 limits assumed) above
D18A, sequence (receptor chain, as listed by the source D18A D18A limits assumed): as the sequence (P20138 18-364 limits assumed) above, with D1A counted along it
P19A, sequence (receptor chain, as listed by the source P19A P19A limits assumed): as the sequence (P20138 18-364 limits assumed) above, with P2A counted along it
Y49A, sequence (receptor chain, as listed by the source Y49A Y49A limits assumed): as the sequence (P20138 18-364 limits assumed) above, with Y32A counted along it
N53A, sequence (receptor chain, as listed by the source N53A N53A limits assumed): as the sequence (P20138 18-364 limits assumed) above, with N36A counted along it
P46A, sequence (receptor chain, as listed by the source P46A P46A limits assumed): as the sequence (P20138 18-364 limits assumed) above, with P29A counted along it
F44A, sequence (receptor chain, as listed by the source F44A F44A limits assumed): as the sequence (P20138 18-364 limits assumed) above, with F27A counted along it
F21A, sequence (receptor chain, as listed by the source F21A F21A limits assumed): as the sequence (P20138 18-364 limits assumed) above, with F4A counted along it
Y50A, sequence (receptor chain, as listed by the source Y50A Y50A limits assumed): as the sequence (P20138 18-364 limits assumed) above, with Y33A counted along it
N20A, sequence (receptor chain, as listed by the source N20A N20A limits assumed): as the sequence (P20138 18-364 limits assumed) above, with N3A counted along it
K52A, sequence (receptor chain, as listed by the source K52A K52A limits assumed): as the sequence (P20138 18-364 limits assumed) above, with K35A counted along it

For isotype mIgG1 control antibody, in the assay with human CD33 [1], the % Positive is 0.47% and the MFI worked out at 227. Besides, in the assay with human CD33 [2], the % Positive worked out at 4.16% and the MFI is 1220. In the assay with human CD33 [3], this molecule came in with a % CD33 surface expression, U937 cells (FACS, 1.0 ug/ml antibody, 24 h, % of no antibody) of 95.7%; a % CD33 surface expression, human microglial cells (FACS, % of no antibody) of 92.1%; a % CD33 surface expression, human primary dendritic cells (FACS, 1.0 ug/ml antibody, 24 h, % of no antibody) of 70.5%; a % CD33 surface expression, human primary macrophages (FACS, 1.0 ug/ml antibody, 24 h, % of no antibody) of 95.4%. The same molecule yielded a % CD33 surface expression, human primary monocytes (FACS, 1.0 ug/ml antibody, 24 h, % of no antibody) with human CD33 [3] of 104%. In the assay with human CD33 [4], this molecule returned a % Positive of 1.97% and an MFI of 861. The same molecule registered a Percent RBC Binding to CD33 with CD33-Fc (human) of 83.8%. Besides, in the assay with human CD33 [5], the % Positive amounted to 2.38% and the MFI worked out at 109.
As for WM53 MAb (antibody), the Binding Reactivity (% WT) with Y49A is 1.7 % WT; with F44A it was 76.5 % WT; with P46A, 152 % WT; in the assay with K52A it was 12.4 % WT; with F21A, 137 % WT; in the assay with D18A, 98 % WT. For the same molecule, the Binding Reactivity (% WT) was 116 % WT in the assay with P19A, 164 % WT with N53A, 75.1 % WT with Y50A and 166 % WT with N20A.

B1: anti-CD33 antibody 1A8 (antibody, V domains shown)
VH: QVQLQQSGAELVKPGASVKLSCKASGYTFTSYDINWVRQRPEQGLEWIGWIFPGDGSTKYNEKFKGKATLTTDKSSNTTYMQLSRLTSEDSAVYFCARGYHYAMDSWGQGTSVTVSS
VL: DIKMTQSPSSMYESLGERVTITCKASQDINKYLSWLQQKPGKSPKTLIYRANRLVDGVPSRFSGSGSGQDYSLTISSLEYEDMGIYHCLQYDEFPLTFGAGTKLELK
notes: Mouse hybridoma antibody; mIgG1 served as isotype control; also called 1A8.2
For B1, in assay [6], the Kd was 6 nM. This molecule returned a Percent RBC Binding to CD33 with CD33-Fc (human) of 10%.

B2: anti-CD33 antibody gemtuzumab (antibody, V domains shown)
VH: EVQLVQSGAEVKKPGSSVKVSCKASGYTITDSNIHWVRQAPGQSLEWIGYIYPYNGGTDYNQKFKNRATLTVDNPTNTAYMELSSLRSEDTAFYYCVNGNPWLAYWGQGTLVTVSS
VL: DIQLTQSPSTLSASVGDRVTITCRASESLDNYGIRFLTWFQQKPGKAPKLLMYAASNQGSGVPSRFSGSGSGTEFTLTISSLQPDDFATYYCQQTKEVPWSFGQGTKVEVKR
notes: Commercially available antibody
As usually defined, the EC50 is the concentration giving half of the maximal effect. Lower therefore signals an effect from little substance. B2: the “EC50 for reducing cell surface expression of CD33 (12-point 2-fold titration, FACS)” value in the assay with human CD33 [3] was 0.107 nM. For the same molecule, in assay [6], the Kd is 1.1 nM. This molecule also showed an EC50 with human CD33 [7] of 0.613 nM.

B3: anti-CD33 antibody lintuzumab (antibody, V domains shown)
VH: QVQLVQSGAEVKKPGSSVKVSCKASGYTFTDYNMHWVRQAPGQGLEWIGYIYPYNGGTGYNQKFKSKATITADESTNTAYMELSSLRSEDTAVYYCARGRPAMDYWGQGTLVTVSS
VL: DIQMTQSPSSLSASVGDRVTITCRASESVDNYGISFMNWFQQKPGKAPKLLIYAASNQGSGVPSRFSGSGSGTDFTLTISSLQPDDFATYYCQQSKEVPWTFGQGTKVEIKR
notes: as for B2
In turn, B3 had an EC50 with human CD33 [7] of 0.845 nM.

B4: anti-CD33 antibody 2F5 (antibody, V domains shown)
VH: EVQLQQSGPELVKPGASVKISCKASGYTFTDYNLHWVKLSHGKSLEWIGFIYPSNGITGYNQKFKNKATLTVDNSSSTAYMELRSLTSEDSAVYYCARSTVDYFDYWGQGTTLTVSS
VL: ZTQSLASLAVSLGQRATMSCRASQSVSTSTYSYMHWYQQKPGQPPKLLIKYASNLECGVPARFSGSGZGTDFTLNIHPVEEEDSATYYCQHSWEIPLTFGGGTKLEMK
notes: Mouse hybridoma antibody, tested under the label 2F5; also called C-2F5; 2F5 mAb
Consider B4, for which the % Positive with human CD33 [1] turned out to be 87%; in the assay with human CD33 [2], 96.7%; with human CD33 [4], 99%; with human CD33 [5] it was 97.5%. Also, the MFI came to 9520 in the assay with human CD33 [1], 2510 with human CD33 [2], 4300 with human CD33 [4] and 1200 with human CD33 [5]. Also, the EC50 with human CD33 [8] was less than 0.2 nM; with human CD33 [7] it was 0.138 nM. The % CD33 surface expression, U937 cells (FACS, 1.0 ug/ml antibody, 24 h, % of no antibody) with human CD33 [3] was 46.7%. This molecule yielded a % CD33 surface expression, human microglial cells (FACS, % of no antibody) with human CD33 [3] of 25%. In the assay with human CD33 [3], this molecule yielded a % CD33 surface expression, human primary dendritic cells (FACS, 1.0 ug/ml antibody, 24 h, % of no antibody) of 15.9%. In the assay with human CD33 [3], this molecule returned a % CD33 surface expression, human primary macrophages (FACS, 1.0 ug/ml antibody, 24 h, % of no antibody) of 58.7%. Besides, in the assay with human CD33 [3], the % CD33 surface expression, human primary monocytes (FACS, 1.0 ug/ml antibody, 24 h, % of no antibody) was found to be 23.3%. In addition, the EC50 for reducing cell surface expression of CD33 (12-point 2-fold titration, FACS) in the assay with human CD33 [3] stood at 0.0215 nM. The molecule also registered a cell surface CD33 on hCD45+ hCD14+ blood cells of hu-NSGS mice (FACS, 40 mg/kg i.p.) with human CD33 [3] of 80%. Besides, the cell surface CD33 on human primary monocytes at 0.001 ug/ml antibody (FACS, % of no antibody) with human CD33 [3] is 50% and 30%. This molecule registered a cell surface CD33 on human primary monocytes at 0.01 ug/ml antibody (FACS, % of no antibody) in the assay with human CD33 [3] of 20%. In addition, the cell surface CD33 on peripheral human CD45+ CD14+ monocytes of humanized NOG mice (FACS, single i.p. dose) with human CD33 [3] is 50%. Further, the fold improvement over gemtuzumab in reducing cell surface levels of CD33 on human primary monocytes with human CD33 [3] stood at 10 fold. The same molecule registered a fold improvement over lintuzumab in reducing cell surface levels of CD33 on human primary monocytes in the assay with human CD33 [3] of 100 fold. In assay [6], the Kd came out at 0.3 nM. The Percent RBC Binding to CD33 in the assay with CD33-Fc (human) was found to be 11.5%. The Binding Reactivity (% WT) with Y49A worked out at 20.6 % WT; in the assay with F44A, 102 % WT; in the assay with P46A it was 105 % WT; with K52A it was 8.9 % WT; with F21A, 122 % WT; in the assay with D18A, 79.5 % WT. Besides, the Binding Reactivity (% WT) worked out at 102 % WT in the assay with P19A, 78.2 % WT with N53A, 32.7 % WT in the assay with Y50A and 111 % WT with N20A.

The record behind these values is patent US20190002560A1 (Alector, published 2019).
